PMC10758951 (2023)
No end group written: not given here.

B1: 2AcK (peptide)
chain: K(Ac)LLK(Ac)HLYH

Legend:
2AcK [1] = target: B1; test: SPR
BRD4-BD1 42-168 = BRD4-BD1 42-168 (Homo sapiens, UniProt O60885); test: SPR
2AcK [2] = target: B1; test: ITC

Row | Binder | Kd (2AcK [1]) [µM] | Kd (BRD4-BD1 42-168) [µM] | Kd (2AcK [2]) [µM]
1 | BRD2-BD1 65-194 (protein) not shown | 2 | – | –
2 | B1 | – | 1 | –
3 | BRD3-BD1 25-147 (protein) not shown | 2 | – | 10
